According to the RNAGym collection of RNA variant scans (doi:10.1073/pnas.2313332121):
This sample holds only a part of the variants without activity.

B1: TPR 5TU (parent)
chain: GGAUCUUCUCGAUCUAACAAAAAAGACAAAUCUGCCACAAAGCUUGAGAGCAUCUUCGGAUGCAGAGGCGGCAGCCUUCGGUGGCGCGAUAGCGCCAACGUUCUCAACUAUGACACGCAAAACGCGUGCUCCGUUGAAUGGAGUUUAUCAUG

Variants of: B1
Assay: polymerase ribozyme fitness, log enrichment relative to wild type (log ratio); higher = more active; in vitro selection for triplet polymerase activity
In short: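 Frozen incubation at −7 °C formed the core of a single, triplicate in vitro selection round applied to PCR-built, transcribed mutant libraries of each subunit of a heterodimeric triplet polymerase ribozyme. Extended constructs were gel-excised, captured with streptavidin beads and amplified by RT-PCR, and input and output libraries were Illumina-sequenced with a filter of ≥10 input reads and ≥1 read per output. Fitness is the logarithm of genotype enrichment relative to wild-type enrichment, with inverse-variance-weighted replicate averaging, and the logarithm is base 2.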

Row | Variant | polymerase ribozyme fitness (log ratio)
1 | C75U C85U A106C A122C U135A U145A | -3.69
2 | A73G A142G | -1.38
3 | C69A C93U U102G A113U G117U U146A C149U | ≤ -4.2
4 | G71U | -1.93
5 | G71A | -2.47
6 | G71C | -2.66
7 | G67A C87U | -4.13
8 | C72G U101G | ≤ -4.2
9 | C69U C85G C149U | -2.74
10 | C75U G92C U109A U146G | -3.93
11 | A66G C85A A91G U148A | ≤ -4.2
12 | C76U C85G | -0.632
13 | C76U C85A | -2.44
14 | C76A C85A G92A G94U C103A C108U A122C | ≤ -4.2
15 | G68A G83U C118G G136U | ≤ -4.2
16 | A73U C85A A147C | -2.75
17 | G70A C85G | ≤ -4.2
18 | G70A C85U | -3.46
19 | A73G U78A C116A A138G | ≤ -4.2
20 | G68A A106C | -4.13
21 | C76A G86A | -2.06
22 | G70C G80A | -3.94
23 | G71C U77A U90C C103A U104G C131G | ≤ -4.2
24 | G67U G70C G86A C132G | ≤ -4.2

Row | Variant | polymerase ribozyme fitness (log ratio)
25 | G68A A91U A107C A110G G141A | ≤ -4.2
26 | C72G C105U | -3.5
27 | G68A U130C | -3.95
28 | C69A G92U | -1.15
29 | C76U C85U U101C U145G | -0.2
30 | G68A G94C | -4.03
31 | A73U C108A A110C G133A | ≤ -4.2
32 | C76U A121U | 0.67
33 | C72G G83A G100A | ≤ -4.2
34 | G68A C87G U104G | ≤ -4.2
35 | A73U C76G G94A | ≤ -4.2
36 | A73G G92A C132U G141C | ≤ -4.2
37 | A73G G94A U148C | -3.66
38 | C72U A89U A122U U146A | -0.532
39 | G68A C75A U77A C95A A97G | ≤ -4.2
40 | G67A C99U A107U G143C | ≤ -4.2
41 | C72U A73C A98G C118A G124C U135C U139A | ≤ -4.2
42 | G67C G92U C99U A107U U148A | ≤ -4.2
43 | C69U C116U U135A G136U | -4.18
44 | C75G U77G G80C A97U G124A | ≤ -4.2
45 | A73G C85A G124A | -1.16
46 | C75U G81A C85A C95G A98U | -3.71
47 | C75G C96U | -3.61
48 | C75G C96A | -3.52

Row | Variant | polymerase ribozyme fitness (log ratio)
49 | A73G G86A A98U G117U C149U | -4.18
50 | A73G G83C | -2.56
51 | C76A G136A | 0.971
52 | C76G A97U | ≤ -4.2
53 | G68C C96G U139A | ≤ -4.2
54 | C69G C96U A142C | -2.43
55 | C69A A115U | -2.49
56 | C69G C75G | -2.12
57 | A73G A98G | 0.461
58 | A66G C85U G86U | ≤ -4.2
59 | C75G U78G A115G | ≤ -4.2
60 | G67U C118U | -2.87
61 | C76A A137G | -1.07
62 | A73U U82A C95U | -1.04
63 | A73U C75G U78A A89G C93G C95A U146G | ≤ -4.2
64 | G74A C114U | -3.85
65 | C75G A106C C108A | ≤ -4.2
66 | A66G U78G U90C U135G | ≤ -4.2
67 | C76G C85G G92A A120C C129U | ≤ -4.2
68 | C69G C93U | -3.1
69 | G71C U102G G133C G141C | ≤ -4.2
70 | C75U A91G C99U | -3.56
71 | G67U C85A C93U | ≤ -4.2
72 | C75G G84U | ≤ -4.2

Row | Variant | polymerase ribozyme fitness (log ratio)
73 | G67A C87A A98U | ≤ -4.2
74 | C69A A121G | -1.74
75 | G68U C85G U139A U145G U146G | ≤ -4.2
76 | G68C C93U G140A A147G | ≤ -4.2
77 | A73U G84U G152A | -3.83
78 | C69G G94A | -1.15
79 | C69U C93U | -2.33
80 | A73U A122G | -0.995
81 | G71U A89U C95A | -3.94
82 | A73U G84A | -2.32
83 | C75G C93A A113U A142G | -4.17
84 | C72U G124A U146G | -1.3
85 | C69G G84U A89U A122C U146C | -2.82
86 | G71C G80C C95G U104G C116U | ≤ -4.2
87 | G71A U144A A147C | ≤ -4.2
88 | C76A A110U U139C G143U | ≤ -4.2
89 | C72U U77C C96A A110G | ≤ -4.2
90 | G70C G80A A91U U104C A120U | ≤ -4.2
91 | C76A G83A U134G | -3.45
92 | C69A G70C A106G C131U A137C | ≤ -4.2
93 | G67U G117A U151A | ≤ -4.2
94 | G68C C99G | ≤ -4.2
95 | G74A G92C | -2.84
96 | C72U A98U | 0.351

Row | Variant | polymerase ribozyme fitness (log ratio)
97 | G71U A73U A97G U145G | ≤ -4.2
98 | C76G C96A U104G G112C | ≤ -4.2
99 | A73G G143A | -0.82
100 | C76A C87U | -2.16
101 | G67C U101A G141U A150U G152U | ≤ -4.2
102 | G68U A91G | ≤ -4.2
103 | A73G C93G U130C | -3.08
104 | C75U G92U | -2.38
105 | C75U G92C | -1.11
106 | C69U C76G U130A | ≤ -4.2
107 | G74C G83A C95U G136A | ≤ -4.2
108 | A73C G141A | -3.8
109 | C72A C125U | ≤ -4.2
110 | G71C A73C C108U U146C C149G | ≤ -4.2
111 | C69U G81U | -2.07
112 | C75U A142C | -1.32
113 | G74C C99U A142U U146A | ≤ -4.2
114 | C69G C76A G152U | -4.17
115 | A73G A119C | -0.028
116 | C72G C99U U101G A142U | ≤ -4.2
117 | A73U A91U A106C G136C | ≤ -4.2
118 | C72G A147U | -3.16
119 | A73U A97G U130G | ≤ -4.2
120 | C76G C96A G140A | ≤ -4.2

Row | Variant | polymerase ribozyme fitness (log ratio)
121 | C72U U104G A106G U144A | -4.01
122 | C76A A89U G141U | -2.94
123 | C76G G94U C96G U111A | ≤ -4.2
124 | G70A A73G C79U G88C G133C A137C | ≤ -4.2
125 | C75U G92U C105G A115U | -4.17
126 | C76U C87A A91G A107U G126A U145A | ≤ -4.2
127 | C75U G136A | 1.26
128 | G68C G86U A89U C96A A110U C114U | ≤ -4.2
129 | C76G A106G G133A | ≤ -4.2
130 | A66G C85U | -3.45
131 | G70A C99U U134G G140C G143C | ≤ -4.2
132 | C69U C96A | -1.12
133 | C75U C85U A119G G143A A147C | -3.76
134 | C72U C76A | -1.91
135 | C75G C87A | -3.89
136 | C76A A89C | -0.238
137 | C69U C87U G92C A150G | -3.27
138 | C75U A91G A147C | -3.68
139 | A73U G83C C123G | -2.93
140 | A73C G92C | -3.64
141 | A73G C93U G152A | -2.84
142 | C75U U82C C116A | 0.695
143 | G74A A115C | -3.73
144 | A73U C85U | -0.649

Row | Variant | polymerase ribozyme fitness (log ratio)
145 | C69A G70C | -3.18
146 | G68C G83U G92A U102A A137G A142G | ≤ -4.2
147 | G67A G86A | -3.58
148 | G68U G136A | -3.9
149 | A73U C75A G92A | ≤ -4.2
150 | C69A C85A G124U | -2.55
151 | G74A G141A | -2.42
152 | C76A G143U | -3.02
153 | C75U A107G A142G | ≤ -4.2
154 | C75A G86A A97G G136U | ≤ -4.2
155 | C76A U90C U146G | ≤ -4.2
156 | G74A A91C A115U G141A A147C U148G | ≤ -4.2
157 | C76A C96U A121C | 0.584
158 | G74A G84A A107G | ≤ -4.2
159 | C75U G83C | -1.13
160 | C76A G140C | -3.36
161 | G67U C79G | ≤ -4.2
162 | G68A G84U C131G G143U | ≤ -4.2
163 | C76G C93U | ≤ -4.2
164 | A73G C85G | -1.1
165 | C72U C93U A97U A115U | -3.88
166 | G68A G81A C95A A150C G152A | ≤ -4.2
167 | C76A U82G U146A | -0.356
